In the nanobody polyreactivity screen of Harvey et al. (2022):

Experiment: yeast display, Sf9 membrane polyspecificity reagent, FACS + sequencing; frameworks hold sequencing errors
Method in brief: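 A nanobody's polyreactivity label depends on the gate it was sorted from. Yeast display cells were stained with 10% biotinylated, detergent-solubilized Sf9 membrane reagent for 1 hour at 4 °C, enriched on streptavidin microbeads and sorted by FACS. The low and high (top ~1%) gates were set on anti-HA fluorescence for expression and streptavidin fluorescence for reagent binding.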

| Sequence | polyreactivity (PSR sort gate) |
| --- | --- |
| QVQLVESGGGLVQAGGSLRLSCAASGFTFYTYVMGWYRQAPGKERELVAAITSGVSTNYADSVKGRFTISRDNAKNTVYLQMNSLKPEDTAVYYCAAGSDFQYGHDYWGQGTQVTVSS | low polyreactivity |
| QVQLLESGGGLVQAGGSLRLSCAASGNIFQVNAMGWYRQAPGKERELVASISRRGGSTNYADSVKGRFTISRDNAKNTVYLQMNSLKPEDTAVYYCAAVARRGSYLGQRLDYWGQGTQVTVSS | high polyreactivity |
| QVQLVESGGGLVQAGGSLRLSCAASGSIFGLNAMGWYRQAPGKERELVARISTGSSTNYADSVKGRFTISRDNAKNTVYLQMNSLKPEDTAVYYCAADVDGGRHYGYWGQGTQVTVSS | low polyreactivity |
| QVQLVESGGGLVQAGGSLRLSCAASGSIFTDYTMGWYRQAPGKERELVAAISWIGDSTDYADSVKGRFTISRDNAKNTVYLQMNSLKPEDTAVYYCAKSRAGRYNDYDYWGQGTQVTVSS | low polyreactivity |
| QVQLVESGGGLVQAGGSLRLSCAASGITFAGYARGWYRQAPGKERELVAAISGSGGSTYYADSVKGRFTISRDNAKNTVYLQMNSLKPEDTAVYYCNADVVPQYYSWGQGTQVTVSS | low polyreactivity |
| QVQLVESGGGLVQAGGSLRLSCAASGSTFPQYAMGWYRQAPGKERELVAAISFSGGSTYYADSVKGRFTISRDNAKNTVYLQMNSLKPEDTAVYYCAAELGLAQYYYWGQGTQVTVSS | low polyreactivity |
| QVQLVESGGGLVQAGGSLRLSCAASGRIFVLYDMGWYRQAPGKERELVAGISGSGGRTYYADSVKGRFTISRDNAKNTVYLQMNSLKPEDTAVYYCNARGYYWYRPYVNSNGGYWGQGTQVTVSS | high polyreactivity |
| QVQLVESGGGLVQAGRTLRLRCAASVSTVPYAMGWYSPAPGKERELVAAISKSAGRSYYADYVKGRFTISRENAKNTVYLQMNSLKPEDTAVYYCAARQSYYGHDYWGQGTQVTVSS | high polyreactivity |
| QVHLVESGGGLVQAGGILRLSCAASGSIFLYYAMGWYRQAPGKERELVAAITGGGGTNYADSVKGRFTISRDNAKNTFYLQMNSLKPEDTAVYYCGADPSGQFPYSYYNYDYDYWGQGTQVTVSS | low polyreactivity |
| QVQLVESGGGLVQAGRSLRLSCAASGRIFSDYAMGWYRQAPGKERELVATITSGDSTNYADSVKGRFTISRDNAKNTVYLQMNSLNPEDTAVYYCNADRFADYDYWGQGTQVTVST | low polyreactivity |
| QVQLVESGGGLVQAGGSLRLSCAASGLTFVWYAMGWYRQAPGKDRELVAAITLSGGSTYYADSGKGRFTISRDNAKNTVYLQMNSLIPEDTAVYYCAADGTYRPEDYDYWGQGTQVTVSS | low polyreactivity |
| QVQLVESGGGLVQAGGSLRLSCAASGSTIGPNAMGSYRQAPGKERELVAAIRSNGGRTYYADSVKGRFTISRDNAKNTVYLQMNSLKPEDTAVYYCAAPHYPYDTPYGYWGQGTQVTVSS | low polyreactivity |
| QVQLVESGGGLVQAGGRLRLICAASGSTFYYNALGWYRQAPGKERELVAGISRSGGSTYYADSVKGRFTISRDNAKNTVYLQMNSLKPEDTAVYYCAAKSYAYRWYDYWGQGTQVTVSS | high polyreactivity |
| QVQLVESGGGLVQAGGSLRLSCAASGFIFFYNAMGWYRQAPGKERELVADISSGGRTYYADSVKGRFTISRDNAKNTVYLQMNSLKPEDTAVYYCAAQSRYWVVRMDYWGQGTQVTVSS | high polyreactivity |
| QVQLVESGGRLVQAGGSLRLSCAASGSIFNRYAMGWYRQAPGKERELVARITNRSGNTYYADSVKGRFTISRANAKNTVYLQMNSLKPEDTAVYYCAATKSLGRYNMDYWGQGTQVTVSS | low polyreactivity |
| QVQLVESGGGLVQAGGSLRLSCAASGFTFVRYAMGWYRQAPGKEREFVASISARGGNTFYADSVKGRFTISRDNAKNTVYLQMNSLKPEDTAVYYCNALTYFKRSEYYWGQGTQVTVSS | high polyreactivity |
| QVQLVESGGGLVQAGGSLRLSCAASGYTLNTYAMGWYRQAPGKERELVAAITWSGGRTYYADSVKGRFTISRDNAKNTVYLQMNSLKPEDTAVYYCNAVWRRSTGDSGYWGQGTQVTVSS | high polyreactivity |
| QVQLVESGGALVQAGGRLRLSCAASGRTFRAYAMGWYRQAPGKERELVAAITSGGSTYYADSVKGRFTISRDNAKNTVYLQMNSLKPEDTEVYYCNRRGWSRTHQYDYWGQGTQVTVSS | high polyreactivity |
| QVQQQESGGGLVQAGGSLRLSCAASGYISVVIGMGWYRQSPGKERELVASIAYGAITYYTDSVKGRFTISRDYAKNTEYLQMNSLKAEDTAVYYCAADQPPLAYHWYWGQGTQATVSS | high polyreactivity |
| QVQLVESGGVLVQAGGSLRLSCAASGGIFNQYAMGWYRQAPGKERELVAAISSSGSSTYYADSVKGRFTISRDNAKNTVYLLMNSLKPEDTAVYYCNTYYSYQRVGYWGQGTQVTVSS | high polyreactivity |
| QVQLVESGGGLVQAGGSLRLSCAASGSILDYYAMGWYRQAPGKERELVAAIRVNGGSTYYADSVKGRFTISRDNAKNTVYLQMNSLKPEDTAVYFCAARFSRFRRTRSEYDYWGQGTQVTVSS | high polyreactivity |
| QVQLVESGGGLVQAGGSLRLSCAASGSIFGDYVMGWYRQAPGKERELVAAITSATSTYYADSVKGRFTISRDNAKNTVYLQINSLKPEDTAVYYCNADATYPLWPNIWYDYDYWGQGTQVTVSS | low polyreactivity |

| Sequence | polyreactivity (PSR sort gate) |
| --- | --- |
| QVQLVESGGGLVQAGGSLRLSCAPSGSTFTSYAMGWYRQAPGKDRELVAAITYGSGTTYADSVKGRFTISRDNAKNTVYLQMNSLKPEDTAVYYCAADFYYPVLGHGFPTYEYDYWGQGTQVTVSS | low polyreactivity |
| QLQLVESGGGLVQAGGSLRLSCAASGNTFYGYTMGWYRQAPGTERELVAVISSSGGRTNYADSVKGRFTISRDNAKNTVYLQMNSLKPEDTAVYYCAARSSRLPHIYGYWGQGTQVTVSS | low polyreactivity |
| QVQLVESGGGLVKAGGSLRLSCAASGRNFNYYAMGWYTQAPGKERELVAAIRSGGSTYYADSVKGRFTISRDNAKYTVYFQMNSLKPEDTAVYYCAKSMSSDAYDSWGQGTKVTVSS | low polyreactivity |
| QVQLVESGGGLVQAGGSLRLSCAASGSIFSVNAMGWYRQAPGKVRELVAAISWRGGSTYYADSVKGRFTISRYNAKTTVYLQMNSLKPEDTAGYYCNAVISVKRSTRYGYWGQGTQVTVSS | low polyreactivity |
| QVQLVESGGGLVQAGGSLRLSCAASGSTFQPNAMGWYRQAPGKERELVAISSGDDTYYADSVKGRFTISRDKAKNTVYFQMNSLIPEDSAVYYCAAEYSFIYYWGQGTQVTVSS | low polyreactivity |
| QVQLVESGGGLVQAGGSLRLSCAASGYIFYYNTMGWYRQAPGKERELVAAISSAGSTNYADSVKGRFTISRDNAKNTVYLQMNSRKPEDTAVYYCAARTRFSYRRNSYGYWGQGTQVNVSS | high polyreactivity |
| QVQLEESGGGLFQAGGSLRLSCAASGSTIFSNAMGWYRQAPGKAREVVAAITSDGGTYYADSVKGRFTISRDNAKKTVYLQMNSLKPEDTAVYYCNVGSFTGHSYGFGYWGQGTQVTVSS | low polyreactivity |
| QVQLQESGGGLVLAGGSLRLSCAESGYISWSFTMGWYRTAPGKERELVAGITYGGITYYADSVKGRFTISRDNAKNTVYLQMNSLKPEDTAVYYCNARKHGQGRNGYGSWGQGTQVTVSS | high polyreactivity |
| QVQLVESGGGLVQAGGSLRLSCAASGRTFYRNAMGWYRQAPGKERELVAAITWSGVSTYYADSVKGRFTISRDNAKNTVYVQMNSQKPEDTAVYYCARGRVLRNGHYFQLRNYDYWGQGTQVTVSS | high polyreactivity |
| QVQLVESGGGLGQAGGSLRVSCAASGGTLYYYAMGWYRQARGKERELVADITNSGSTNYADAVKGRFTISRDNAKNTVYLQMNSLKPEDTAVYSCAAAFSRRYDWGQGTQVTVSS | high polyreactivity |
| QVQLVESGGGLVQAGGSLRLSCAASGRTFISYAMGWYRQAPGKERELVAAISGRGGSTYFADSVKGRFTISRDNAKNTVYLQMNSLKQEDTAVYYCAAEWFGVYRRYKYDYWGQGTQVTVSS | low polyreactivity |
| QVQLVESGGGLVQAGGSLRLSCAASGRIIQYNAMGWYRQAPGKERELVAAISWRSGRTYYADSVKGRFTISRDNAKNTVYLQMNSLKPEDTAVYYCAATSRTSWYGYWGQGTQVTVSS | high polyreactivity |
| QVQLVESGGGIVQAGGSLRLSCAASGFTISRYAMGWDRPAPGKERELVAAITGSGGSTYYADSVKGRFTISRDIAKNTVYLQMNSLKPEDTAVYYCNTMKHYKREYDYWGQGSQVTVSS | high polyreactivity |
| QVQLVESGGGLVQAGGSLRLSCAASGSLIRRYAMGWYRQAPGKEREFVAAISGRGGRTYYADSVKGRFTISRDNAKNTVYLQMNSLKPEDTAVYYCNAAFVTAEMDYWGQGTQVTVSS | high polyreactivity |
| QVQLVESGGGLVQAGGSLRLSCAASGSIFTEYAMGWYIQAPGKERELVAAISWSGATTYYADSVKGRFTISRDNAKNTVYLQMNSLKPEDTAVYYCAARWANRSYEYWGQGTQVTVSS | low polyreactivity |
| QVQLVESGGGLVQAGGSLRLSCAASGRIFGNYAMGWSRQAPGKERELVSAITYSTGGTSTYADSVKGLFTISRDNAKNSVYLQMNSLKPEDTAVYYCAVRRQYRRAYSFSQSRYDYWGQGTQVTVSS | high polyreactivity |
| QVQLVESGGGLVQAGGSLRLICAASGRTFTGYTMGWYRQAPGKEREFVAAISSNGGRTYYADSVKGRFTISRDNAKNTVYLQMNSLKPEDTAVYYCAAPYTFWGQGTQVTVSS | high polyreactivity |
| QVQLVESGGGLVQAGGSLRLSCAASGSTFGDYAMGWYRQAPGKERELVAAISFSDDSTYYADSVKGRFTISRDNAKNTVYLQMNSLKPEDTAVYYCAKEAEYSTPGGDYWGQGTQVTVSS | low polyreactivity |
| QVQLVESGGGLVQAGASRRLSCAASVFTFGDNAMGWSRQATGKDRELVDAITSSGSTNYADSVKGRFTMSRDIAKNTVYLQLNSLTQEDTAVNYCNAEDSVDAPVYKDLGSEYDSWGQGTQVTVSS | low polyreactivity |
| QVQLVESGGGLVQAGGSLRLTCAASGRIFFYYSMGWYRQAPGKERELVAAIRSGGSTNYADSVKGRFTISRDNAKNTVYLQMYILKPEDTAGYYSAAHPTRYYTPRYYYWGLGTQVTVSS | high polyreactivity |
| QVQLVESGGGLVQAGGSLRLSCAASGSTFRSYAMGWYRQAPGKERELVAAITSGANTNYADSVKGRFTISRDNAKNTVDLQMNSLKPEDTAVYYCAKASYIIFRIEYRSGYDYWGQGTQVTVSS | low polyreactivity |
